# PMC9851723
# Target: SARS-CoV-2 nucleocapsid protein (Np) (SARS-CoV-2, UniProt P0DTC9 1-419)
# Assay: SPR
binder,measurement,value
A48t-T20-A61t (DNA-BC) (ssDNA) DNA: TTCCTTAGGGGCACCGCTACATTTTTTTTTTTTTTTTTTTTTACCTTTACAGATCGGATTCTGTGGGGCG,Kd,1.04 nM
